Like-named read-outs stand apart in the source and are kept apart here.

Experiment [1] deals with T1, native CD115 on OCI-AML5 cells (UniProt P07333 20-972, limits assumed).
T1 construct: whole, on cells; cell line endogenous receptor; also called CD115 expressed on OCI-AML5 cells; CD115 expressing AML5 cells
The experiment can be described thus: FACS, supernatant on OCI-AML5 cells. (In flow cytometry, cells or beads pass a laser one at a time.)

Experiment [2] deals with T2, human CD115 extracellular domain (Sino Biological 10161-H08H) (human, UniProt P07333 20-517).
T2 construct: extracellular domain; bought recombinant protein; also called huCD115; hu-CD115
The experiment can be described thus: ELISA, supernatant on huCD115. A general note: An ELISA detects its analyte on a solid surface through an enzyme-linked reagent.

Experiment [3] addresses T2, human CD115 extracellular domain (Sino …). In words: SPR ProteOn, mAb amine coupled, Hu CD115 analyte.
Experiment [4] concerns the target T1, native CD115 on OCI-AML5 cells. In words: cell-based or functional assay.
For experiment [5] the target is unchanged. The experiment can be described thus: cell-based or functional assay. This is another data set of the same source.
The target in experiment [6] is T2, human CD115 extracellular domain (Sino …). In words: ELISA, blocking of biotin-CSF-1 binding to coated hu-CD115.
Experiment [7] shares this target. The experiment is described as above. This is another data set of the same source.
For experiment [8] the target is unchanged. In words: competition ELISA, competitor TMR 24A.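 Also: clonal anti-huCD115 hybridoma supernatant antibodies bound with a competitor mouse antibody present, and failure to bind puts a clone in that competitor's epitope bin; low signal means same epitope bin as the mouse competitor antibody.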
Experiment [9] has the same target. The experiment can be described thus: competition ELISA, competitor TMR 100A.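 Also: clonal anti-huCD115 hybridoma supernatants tested for binding with the competitor antibody present, clones failing to bind are assigned to the competitor's epitope bin; low signal means same epitope bin as the mouse competitor antibody.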
Experiment [10] has the same target. In words: competition ELISA, competitor TMR 95A.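 Also: clonal anti-huCD115 hybridoma supernatants tested for binding while a competitor mouse antibody is present, where failure to bind assigns them to that competitor's epitope bin; low signal means same epitope bin as the mouse competitor antibody.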
Experiment [11] has the same target. In words: competition ELISA, competitor TMR 35A.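 Also: clonal hybridoma supernatant antibodies added to wells after the competitor mouse antibody, lost binding signal puts an antibody in that competitor's epitope bin; low signal means same epitope bin as the mouse competitor antibody.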
Experiment [12] shares this target. In words: competition ELISA, competitor TMR 44B.
Experiment [13] shares this target. The experiment can be described thus: competition ELISA, competitor TMR 20A.

B1: CCL-213A (antibody, V domains shown)
VH: QVQLQESGPGLVKPSETLSLTCTVSGGSISSYYWSWIRQPAGKGLEWIGRIYTSGSTKNPSLKSRVTMSVDTSKNQFSLKLSSVTAADTAVYYCARLTVVGALDYWGQGTLVTVSS
VL: not shown
notes: AlivaMab chimeric IgG, human lambda LC
Take B1: the binding result in [1] and in experiment [2] was “binds” throughout.

B2: CCK-423A (antibody, V domains shown)
VH: QVQLEQSGAEVKRPGASVKVSCKASGYTFTGYYMHWVRQAPGQGLEWMGWINPNRGDTNYAQKFQGRVTMTRDTSISTAYMELSRLRSDDTAVYYCARDLEGGGPFDYWGQGTLVTVSS
VL: DIVMTQTPLSLPVTPGEPASISCRSSQSLLDSDDGNTYLDWYLQKPGQSPQLLIYTLSYRASGVPDRFSGSGSGTDFTLKISRVEAEDVGVYYCMQRIEFPSTFGQGTRLEIK
notes: AlivaMab chimeric IgG, human kappa LC; also called AlivaMab CCK423A; AlivaMab Mouse CCK423A
On to B2, for which, in experiment [3], binding was characterised by a dissociation constant (Kd) of 1.2 nM, the koff stood at 0.015 s⁻¹ and the kon is 1.3e+07 M⁻¹ s⁻¹. Further, the “IC50, inhibition of CSF-1 induced phosphorylation of CD115” value (from here on “IC50, inhibition … of CD115”) in [4] was 0.045 nM. In addition, in [5], the “IC50, inhibition of CSF-1 induced P-Tyr on CD115” value was 0.058 nM. In experiment [6], this molecule came in with an IC50 of 0.135 nM. The molecule further registered an IC50 in experiment [7] of 0.191 nM.

B3: CCK423A-IgG1κ (fully human) (antibody, V domains shown)
VH: QVQLEQSGAEVKRPGASVKVSCKASGYTFTGYYMHWVRQAPGQGLEWMGWINPNRGDTNYAQKFQGRVTMTRDTSISTAYMELSRLRSDDTAVYYCARDLEGGGPFDYWGQGTLVTVSS
VL: DIVMTQTPLSLPVTPGEPASISCRSSQSLLDSDDGNTYLDWYLQKPGQSPQLLIYTLSYRASGVPDRFSGSGSGTDFTLKISRVEAEDVGVYYCMQRIEFPSTFGQGTRLEIK
notes: also called Human IgG1κ; CCK423A-I IgG1κ
In experiment [3], B3 gave a Kd of 1.2 nM, a koff of 0.017 s⁻¹ and a kon of 1.2e+07 M⁻¹ s⁻¹. Further, the “IC50, inhibition of CSF-1 induced P-Tyr on CD115” value in experiment [5] worked out at 0.068 nM. In [7], the IC50 turned out to be 0.146 nM.

B4: CCK423A-IgG2κ (fully human) (antibody, V domains shown)
VH: QVQLEQSGAEVKRPGASVKVSCKASGYTFTGYYMHWVRQAPGQGLEWMGWINPNRGDTNYAQKFQGRVTMTRDTSISTAYMELSRLRSDDTAVYYCARDLEGGGPFDYWGQGTLVTVSS
VL: DIVMTQTPLSLPVTPGEPASISCRSSQSLLDSDDGNTYLDWYLQKPGQSPQLLIYTLSYRASGVPDRFSGSGSGTDFTLKISRVEAEDVGVYYCMQRIEFPSTFGQGTRLEIK
notes: also called Human IgG2κ
Consider B4, for which, in experiment [3], the Kd turned out to be 1.3 nM, the off-rate (koff) amounted to 0.014 s⁻¹ and the kon is 1.3e+07 M⁻¹ s⁻¹. For the same molecule, in experiment [5], the “IC50, inhibition of CSF-1 induced P-Tyr on CD115” value was determined as 0.059 nM. In experiment [7], this molecule returned an IC50 of 0.253 nM.

B5: CCK423A-IgG4κ (fully human) (antibody, V domains shown)
VH: QVQLEQSGAEVKRPGASVKVSCKASGYTFTGYYMHWVRQAPGQGLEWMGWINPNRGDTNYAQKFQGRVTMTRDTSISTAYMELSRLRSDDTAVYYCARDLEGGGPFDYWGQGTLVTVSS
VL: DIVMTQTPLSLPVTPGEPASISCRSSQSLLDSDDGNTYLDWYLQKPGQSPQLLIYTLSYRASGVPDRFSGSGSGTDFTLKISRVEAEDVGVYYCMQRIEFPSTFGQGTRLEIK
notes: also called Human IgG4κ; CCK423A-IgG4K
As to B5, in [3], binding was put at a Kd of 1.3 nM, the koff was 0.015 s⁻¹ and the on-rate constant (kon) was found to be 1.1e+07 M⁻¹ s⁻¹. Further, the “IC50, inhibition of CSF-1 induced P-Tyr on CD115” value in experiment [5] came out at 0.06 nM. For the same molecule, the 50% inhibitory concentration (IC50) in experiment [7] is 0.133 nM.

B6: CCK-415A (antibody, V domains shown)
VH: QVQLQESGPGLVKPSETLSLTCTVSGGSISSSYWTWIRQPPGKGLEWIGYIHYSGSTNYNPSLKSRVTISVDTSKNQFSLKLSSVTAADTAVYYCARGFDYWGQGTLVTVSS
VL: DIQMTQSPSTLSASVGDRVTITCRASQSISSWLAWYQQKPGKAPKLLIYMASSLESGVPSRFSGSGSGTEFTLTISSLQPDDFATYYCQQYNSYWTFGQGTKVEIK
notes: AlivaMab chimeric IgG, human kappa LC
As to B6, the “signal vs NO COMP=100” value was 31% in experiment [8]; 93% in experiment [9]; 11% in experiment [10]; 96% in [11]; 46% in experiment [12]; 97% in [13]. Besides, in [4], the “IC50, inhibition … of CD115” value was 0.57 nM. This molecule yielded an IC50 in experiment [6] of 0.355 nM.

B7: CCL-332A (antibody, V domains shown)
VH: EVQLVESGGGLVQPGGSLRLSCAASGFTFSSYSMNWVRQAPGKGLEWVSYISSSSSTIYYADSVKGRFTISRDNAKNSLYLQMNSLRDEDTAVYYCARDYYGSSGYYYPHAFDIWGQGTMVTVSS
VL: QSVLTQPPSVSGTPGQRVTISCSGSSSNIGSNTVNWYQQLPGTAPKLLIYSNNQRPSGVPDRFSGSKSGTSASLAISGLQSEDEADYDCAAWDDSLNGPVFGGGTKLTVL
notes: as for B1
Turning to B7, the binding result in [1] and in experiment [2] was “binds” each time.

B8: CCL-325A (antibody, V domains shown)
VH: QVQLQESGPGLVKPSETLSLTCTVSGGSISSYYWSWIRQSAGKGLEWIGHIYTSGSTNYNPSLKSRVTMSVDTSKNQFSLKLSSVTAADTAVYYCARERTVVTYFDYWGQGTLVTVSS
VL: not shown
notes: as for B1
On to B8, for which the binding result in experiment [1] and in experiment [2] was “binds” throughout.

B9: CCK-416A (antibody, V domains shown)
VH: EVQLVESGGDLVQPGGSLRLSCADSRFTFSSYSMNWVRQAPGKGLEWVSYISPSSSTIYYADSVRGRFTISRDNAKNSLYLQMNSLRNEDTAVYYCARDFPHDYGYYPHYFDYWGQGTLVTVSS
VL: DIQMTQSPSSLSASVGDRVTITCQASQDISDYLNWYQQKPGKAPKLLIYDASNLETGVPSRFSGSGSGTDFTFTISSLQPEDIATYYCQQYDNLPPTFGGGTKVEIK
notes: as for B6
B9: the “signal vs NO COMP=100” value was 37% in experiment [8]; 104% in experiment [9]; 21% in experiment [10]; 107% in experiment [11]; 53% in experiment [12]; 94% in experiment [13]. Besides, the “IC50, inhibition … of CD115” value in [4] stood at 1.35 nM. Further, the IC50 in experiment [6] is 0.811 nM.

As usually defined, the Kd is the constant that tells how readily two partners part at equilibrium. Low values mean tighter binding, high ones weaker binding. What is called koff is the rate constant with which the complex falls apart. As usually defined, the kon is the rate constant with which the complex forms. Read a high kon as faster complex formation. As usually defined, the IC50 is the midpoint of a concentration-inhibition curve. Higher therefore signals a need for much substance.

These data come from patent US20180258175A1 (ABLEXIS, published 2018).
